What was measured:
Format in all cases: in vivo
transgenic maize plants [1] = assay: inbred trait efficacy field trials (R2); conditions: with or without CTP; quizalofop-P 0.16 lb ai/acre PRE, V4, V8
Method: Inbred trait efficacy field trials were conducted to assess tolerance to the AOPP herbicides and sensitivity to the cyclohexanediones (CHD) herbicides in an inbred background. R2 inbred plants were generated by selfing a homozygous transgenic R1 plant and collecting seed. R2 inbred plants containing MON-HT55 with or without a CTP or MON-HT51 with a CTP and were evaluated at two field locations. Herbicide treatment was 2× quizalofop-P at 0.16 lb ai/acre applied PRE (after planting but before emergence) followed by quizalofop-P at 0.16 lb ai/acre applied at V4 growth stage followed by quizalofop-P at 0.16 lb ai/acre applied at V8 growth stage. Plots were rated for crop injury 7-10 days after herbicide application on a scale of 0-100 with zero being no injury and 100 being complete crop death. All data were subjected to analysis of variance and means separated at LSD (0.05). […] To test for sensitivity to CHD herbicides, which is desirable for use in volunteer control, plants were treated with a 1× rate of clethodim (0.25 lb ai/acre) at V8 growth stage. […] The resulting F1 plants containing MON-HT55 (SEQ ID NO:13) with or without a CTP or MON-HT51 (SEQ ID NO: 3) without a CTP were evaluated at six field locations. […] This permitted the engineered protein to be evaluated in maize under high temperature and water stress conditions. […]

transgenic maize plants [2] = assay: hybrid trait efficacy field trials (F1); conditions: 2× quizalofop-P, six locations
Method: Inbred trait efficacy field trials were conducted to assess tolerance to the AOPP herbicides and sensitivity to the cyclohexanediones (CHD) herbicides in an inbred background. R2 inbred plants were generated by selfing a homozygous transgenic R1 plant and collecting seed. R2 inbred plants containing MON-HT55 with or without a CTP or MON-HT51 with a CTP and were evaluated at two field locations. Herbicide treatment was 2× quizalofop-P at 0.16 lb ai/acre applied PRE (after planting but before emergence) followed by quizalofop-P at 0.16 lb ai/acre applied at V4 growth stage followed by quizalofop-P at 0.16 lb ai/acre applied at V8 growth stage. Plots were rated for crop injury 7-10 days after herbicide application on a scale of 0-100 with zero being no injury and 100 being complete crop death. All data were subjected to analysis of variance and means separated at LSD (0.05). […] To test for sensitivity to CHD herbicides, which is desirable for use in volunteer control, plants were treated with a 1× rate of clethodim (0.25 lb ai/acre) at V8 growth stage. Volunteer control using a 1× rate of clethodim was 100% effective for all transgenic plants tested. Hybrid trait efficacy field trials were conducted to assess tolerance to the AOPP herbicides and sensitivity to the cyclohexanediones (CHD) herbicides in a hybrid background. F1 hybrid plants were produced by crossing an R1 inbred plant with a non-transgenic plant and collecting seed. The resulting F1 plants containing MON-HT55 (SEQ ID NO:13) with or without a CTP or MON-HT51 (SEQ ID NO: 3) without a CTP were evaluated at six field locations. The hybrid trait efficacy field trials were conducted at six locations under a range of environmental conditions, including high heat and drought conditions during the field season. This permitted the engineered protein to be evaluated in maize under high temperature and water stress conditions. Initial injury from 2× applications of quizalofop-P were higher than desired (>10% injury) at 7-10 days after application. Plants eventually grew out of most of the injury, with generally less injury from the V8 growth stage application as compared to the V4 growth stage application. Excessive injury was also noted when quizalofop-P was applied very early (for example, at VE-V2 growth stage).

[3] = system: transgenic soybean plants; assay: R0 soybean green house 2,4-D spray test; conditions: single copy R0 soy events
From the text: Two engineered proteins were selected for analysis in transgenic soybean. DNA constructs were produced for expressing MON-HT1 (SEQ ID NO:14) and MON-HT2 (SEQ ID NO:18) with codon usage optimized for dicot expression using methods known to those skilled in the art. Enhancers, promoters, leaders, introns, CTPs, and 3′UTRs in various combinations were operably linked to the engineered proteins in these DNA constructs. The DNA constructs were used to transform soybean using Agrobacterium tumifaciens and standard methods known in the art. Regenerated R0 transgenic plantlets were grown in the green house. Approximately 9 weeks after transformation at the 1-2 trifoliate leaf stage, single copy R0 events were identified and sprayed with 2,4-D herbicide at a rate of 0.5× (0.375 lb ae/acre), 2× (1.5 lb ae/acre), or 4× (3.0 lb ae/acre). Approximately 2 weeks after herbicide application, the plants were rated for herbicide injury on a scale of 1 to 3, where 1=little to no injury (<20%), 2=moderate injury (20-50%) and 3=severe injury (>50%).

[4] = CTP No, 2,4-D rate 0.5X, about 2 weeks after application

B1: MON-HT55: engineered oxygenase protein, amino acid sequence SEQ ID NO:11 (protein)
chain: MHAALSPLSQRFERIAVQPLTGVLGAEITGVDLREPLDDSTWNEILDAFHTYQVIYFPGQAITNEQHIAFSRRFGPVDPVPLLKSIEGYPEVQMIRREANESGRVIGENWHTDSTFLDAPPAAVVMYAKEIPPYGGDTLFTSMYTAWETLSPTMQATIEGLNVVHSATRVFGSLYQAQNRRFSNTSVKVMDVDAGDRETVHPLVVTHPETGRKGLYVNQVYCQRIEGMSEKESEPLLSFLFAHATKPEFTCRVRWQEGDVLVWDNLCTQHYAVPDYAGKFRYLTRTTVGGVRPAR
B1 was tested, and the “crop injury of inbred plants” value (transgenic maize plants [1]) was “no injury”, the “% injury after V4 spray” value (transgenic maize plants [2]; CTP No) was 46.8% and the “% injury after V8 spray” value (transgenic maize plants [2]; CTP No) was 78.8%. The “% injury after V4 spray” value (transgenic maize plants [2]; CTP Yes) was 42.6-48.3% and the “% injury after V8 spray” value (transgenic maize plants [2]; CTP Yes) was 14.2-38.8%.

B2: MON-HT1: engineered oxygenase protein, amino acid sequence SEQ ID NO:14 (protein)
chain: MHAALTPLTNKYRFIDVQPLTGVLGAEITGVDLREPLDDSTWNEILDAFHTYQVIYFPGQAITNEQHIAFSRRFGPVDPVPILKSIEGYPEVQMIRREANESSRFIGDDWHTDSTFLDAPPAAVVMRAIEVPEYGGDTGFLSMYSAWETLSPTMQATIEGLNVVHSATKVFGSLYQATNWRFSNTSVKVMDVDAGDRETVHPLVVTHPVTGRRALYCNQVYCQKIQGMTDAESKSLLQFLYEHATKFDFTCRVRWKKDQVLVWDNLCTMHRAVPDYAGKFRYLTRTTVAGDKPSR
B2 was tested, and the “Events with 20-50% injury” value ([3]; CTP No, 2,4-D rate 0.5X) was 10, the “Events with injury >50%” value ([3]; CTP No, 2,4-D rate 0.5X) was 0 and the “Events with <20% injury” value [3, 4] was 120. For the same molecule, the “Events with 20-50% injury” value ([3]; CTP No, 2,4-D rate 2X) was 30, the “Events with <20% injury” value ([3]; CTP No, 2,4-D rate 2X) was 6 and the “Events with injury >50%” value ([3]; CTP No, 2,4-D rate 2X) was 0. The “Events with 20-50% injury” value ([3]; CTP Yes, 2,4-D rate 2X) was 35, the “Events with <20% injury” value ([3]; CTP Yes, 2,4-D rate 2X) was 101 and the “Events with injury >50%” value ([3]; CTP Yes, 2,4-D rate 2X) was 0. The “Events with 20-50% injury” value ([3]; CTP Yes, 2,4-D rate 4X) was 6, the “Events with <20% injury” value ([3]; CTP Yes, 2,4-D rate 4X) was 5 and the “Events with injury >50%” value ([3]; CTP Yes, 2,4-D rate 4X) was 0.

B3: MON-HT2: engineered oxygenase protein, amino acid sequence SEQ ID NO:18 (protein)
chain: MHAALTPLTNKYRFIDVQPLTGVLGAEITGVDLREPLDDSTWNEILDAFHTYQVIYFPGQAITNEQHIAFSRRFGPVDPVPLLKSIEGYPEVQMIRREANESSRVIGDDWHSDSTFLDAPPAAVVMRAIEVPEYGGDTGFLSMYSAWETLSPTMQATIEGLNVVHSATKVFGSLYQATNWRFSNTSVKVMDVDAGDRETVHPLVVTHPVTGRRALYCNQVYCQKIQGMTDAESKSLLQFLYEHATKFDFTCRVRWKKDQVLVWDNLCTMHRAAPDYAGKFRYLTRTTVAGDKPSR
With B3 the “Events with 20-50% injury” value ([3]; CTP No, 2,4-D rate 0.5X) was 19, the “Events with injury >50%” value ([3]; CTP No, 2,4-D rate 0.5X) was 0 and the “Events with <20% injury” value [3, 4] was 3.

B4: MON-HT51: engineered oxygenase protein, amino acid sequence SEQ ID NO:1 (protein)
chain: MHAALSPLSQRFERIAVQPLTGVLGAEITGVDLREPLSDSTWNEILDAFHTYQVIYFPGQAITNEQHIAFSRRFGPVDPVPLLKSIEGYPEVQMIRREANESGRVIGDDWHTDSSFLDAPPAAVVMRAIDVPEHGGDTGFLSMYTAYDALSDGLKKLISGLNVVHSATRVFGSLYQAQNRRFSNTSVKVMDVADGDRETVHPLVVTHPGSGRKGLYVNQVYCQRIEGMSEKESEPLLSFLFAHATKPEFTCRVRWKKDQVLVWDNLCTMHYAINDYHGQTRILHRTTVGGVRPAR
For B4, the “crop injury of inbred plants” value (transgenic maize plants [1]) was “no injury”, the “% injury after V4 spray” value (transgenic maize plants [2]; CTP Yes) was 51.8% and the “% injury after V8 spray” value (transgenic maize plants [2]; CTP Yes) was 33.3%.

Source: patent US12723255B2, “Herbicide tolerance genes and methods of use thereof” (priority 2014, dated 2026)
